Experimental findings from patent US20200079833A1 (AstraZeneca / MedImmune, published 2020) are described below.

Starred links: 1 amine or outer side, 2 acyl side, 3 side chain; linkers in the order of their positions; H or OH if unused. Non-standard residues stand in square brackets, D forms with d. Groups on a side chain read outwards from the residue. No end group written: not given here. *: point of attachment. γGlu = O=C(O)[C@H](CCC(=O)[*:2])N[*:1]; Palmitoyl = CCCCCCCCCCCCCCCC(=O)*; αMeF = C[C@](N)(Cc1ccccc1)C(=O)O; αMeK = C[C@](N)(CCCCN)C(=O)O; αMeS = C[C@](N)(CO)C(=O)O; Aib = CC(C)(N)C(=O)O

The labels stand for the following.
T1: glucose-dependent insulinotropic peptide (gastric inhibitory polypeptide) receptor (GIPR) (human, UniProt P48546 22-466)
T1 sequence (looked up): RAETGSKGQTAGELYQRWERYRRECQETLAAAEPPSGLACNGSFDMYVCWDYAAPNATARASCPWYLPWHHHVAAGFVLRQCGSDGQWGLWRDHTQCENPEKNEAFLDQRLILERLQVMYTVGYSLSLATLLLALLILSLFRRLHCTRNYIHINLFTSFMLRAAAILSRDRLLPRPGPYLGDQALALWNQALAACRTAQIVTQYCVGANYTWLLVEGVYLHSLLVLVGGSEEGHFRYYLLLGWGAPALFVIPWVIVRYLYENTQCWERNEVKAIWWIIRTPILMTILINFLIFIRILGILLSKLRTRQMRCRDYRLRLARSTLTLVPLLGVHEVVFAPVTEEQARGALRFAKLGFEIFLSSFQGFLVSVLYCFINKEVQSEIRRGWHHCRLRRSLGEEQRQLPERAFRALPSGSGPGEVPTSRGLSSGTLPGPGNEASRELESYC

B1: SEQ ID NO 88 (peptide)
peptide: HXEGSFTSDVSKFLEGEAAKEFIAFVVKGG
modifications: Aib 2; α-MeF 6, 13, 22, 25; α-MeS 11; α-MeK 20, 28; K(ε-γE-Palmitoyl) 12; C-terminal amide
B2: SEQ ID NO 86 (peptide)
peptide: H[Aib]EGS[αMeF]TSDV[αMeS]S[αMeF]K([γGlu-Palmitoyl])EGEAA[αMeK]E[αMeF]IA[αMeF]VV[αMeK]GG-NH2
modifications: N-terminus assumed
SMILES: CCCCCCCCCCCCCCCC(=O)N[C@@H](CCC(=O)NCCCC[C@H](NC(=O)[C@](C)(Cc1ccccc1)NC(=O)[C@H](CO)NC(=O)[C@](C)(CO)NC(=O)[C@@H](NC(=O)[C@H](CC(=O)O)NC(=O)[C@H](CO)NC(=O)[C@@H](NC(=O)[C@](C)(Cc1ccccc1)NC(=O)[C@H](CO)NC(=O)CNC(=O)[C@H](CCC(=O)O)NC(=O)C(C)(C)NC(=O)[C@@H](N)Cc1c[nH]cn1)[C@@H](C)O)C(C)C)C(=O)N[C@@H](CCC(=O)O)C(=O)NCC(=O)N[C@@H](CCC(=O)O)C(=O)N[C@@H](C)C(=O)N[C@@H](C)C(=O)N[C@@](C)(CCCCN)C(=O)N[C@@H](CCC(=O)O)C(=O)N[C@@](C)(Cc1ccccc1)C(=O)N[C@H](C(=O)N[C@@H](C)C(=O)N[C@@](C)(Cc1ccccc1)C(=O)N[C@H](C(=O)N[C@H](C(=O)N[C@@](C)(CCCCN)C(=O)NCC(=O)NCC(N)=O)C(C)C)C(C)C)[C@@H](C)CC)C(=O)O
B3: SEQ ID NO 90 (peptide)
peptide: H[Aib]EGS[αMeF]TSDK([γGlu-Palmitoyl])[αMeS]S[αMeF]LEGEAA[αMeK]E[αMeF]IA[αMeF]VV[αMeK]GG-NH2
modifications: N-terminus assumed
SMILES: CCCCCCCCCCCCCCCC(=O)N[C@@H](CCC(=O)NCCCC[C@H](NC(=O)[C@H](CC(=O)O)NC(=O)[C@H](CO)NC(=O)[C@@H](NC(=O)[C@](C)(Cc1ccccc1)NC(=O)[C@H](CO)NC(=O)CNC(=O)[C@H](CCC(=O)O)NC(=O)C(C)(C)NC(=O)[C@@H](N)Cc1c[nH]cn1)[C@@H](C)O)C(=O)N[C@@](C)(CO)C(=O)N[C@@H](CO)C(=O)N[C@@](C)(Cc1ccccc1)C(=O)N[C@@H](CC(C)C)C(=O)N[C@@H](CCC(=O)O)C(=O)NCC(=O)N[C@@H](CCC(=O)O)C(=O)N[C@@H](C)C(=O)N[C@@H](C)C(=O)N[C@@](C)(CCCCN)C(=O)N[C@@H](CCC(=O)O)C(=O)N[C@@](C)(Cc1ccccc1)C(=O)N[C@H](C(=O)N[C@@H](C)C(=O)N[C@@](C)(Cc1ccccc1)C(=O)N[C@H](C(=O)N[C@H](C(=O)N[C@@](C)(CCCCN)C(=O)NCC(=O)NCC(N)=O)C(C)C)C(C)C)[C@@H](C)CC)C(=O)O
B4: SEQ ID NO 91 (peptide)
peptide: H[Aib]EGS[αMeF]TSK([γGlu-Palmitoyl])V[αMeS]S[αMeF]LEGEAA[αMeK]E[αMeF]IA[αMeF]VV[αMeK]GG-NH2
modifications: N-terminus assumed
SMILES: CCCCCCCCCCCCCCCC(=O)N[C@@H](CCC(=O)NCCCC[C@H](NC(=O)[C@H](CO)NC(=O)[C@@H](NC(=O)[C@](C)(Cc1ccccc1)NC(=O)[C@H](CO)NC(=O)CNC(=O)[C@H](CCC(=O)O)NC(=O)C(C)(C)NC(=O)[C@@H](N)Cc1c[nH]cn1)[C@@H](C)O)C(=O)N[C@H](C(=O)N[C@@](C)(CO)C(=O)N[C@@H](CO)C(=O)N[C@@](C)(Cc1ccccc1)C(=O)N[C@@H](CC(C)C)C(=O)N[C@@H](CCC(=O)O)C(=O)NCC(=O)N[C@@H](CCC(=O)O)C(=O)N[C@@H](C)C(=O)N[C@@H](C)C(=O)N[C@@](C)(CCCCN)C(=O)N[C@@H](CCC(=O)O)C(=O)N[C@@](C)(Cc1ccccc1)C(=O)N[C@H](C(=O)N[C@@H](C)C(=O)N[C@@](C)(Cc1ccccc1)C(=O)N[C@H](C(=O)N[C@H](C(=O)N[C@@](C)(CCCCN)C(=O)NCC(=O)NCC(N)=O)C(C)C)C(C)C)[C@@H](C)CC)C(C)C)C(=O)O
B5: SEQ ID NO 87 (peptide)
peptide: H[Aib]EGS[αMeF]TSDV[αMeS]SK([γGlu-Palmitoyl])LEGEAA[αMeK]E[αMeF]IA[αMeF]VV[αMeK]GG-NH2
modifications: N-terminus assumed
SMILES: CCCCCCCCCCCCCCCC(=O)N[C@@H](CCC(=O)NCCCC[C@H](NC(=O)[C@H](CO)NC(=O)[C@](C)(CO)NC(=O)[C@@H](NC(=O)[C@H](CC(=O)O)NC(=O)[C@H](CO)NC(=O)[C@@H](NC(=O)[C@](C)(Cc1ccccc1)NC(=O)[C@H](CO)NC(=O)CNC(=O)[C@H](CCC(=O)O)NC(=O)C(C)(C)NC(=O)[C@@H](N)Cc1c[nH]cn1)[C@@H](C)O)C(C)C)C(=O)N[C@@H](CC(C)C)C(=O)N[C@@H](CCC(=O)O)C(=O)NCC(=O)N[C@@H](CCC(=O)O)C(=O)N[C@@H](C)C(=O)N[C@@H](C)C(=O)N[C@@](C)(CCCCN)C(=O)N[C@@H](CCC(=O)O)C(=O)N[C@@](C)(Cc1ccccc1)C(=O)N[C@H](C(=O)N[C@@H](C)C(=O)N[C@@](C)(Cc1ccccc1)C(=O)N[C@H](C(=O)N[C@H](C(=O)N[C@@](C)(CCCCN)C(=O)NCC(=O)NCC(N)=O)C(C)C)C(C)C)[C@@H](C)CC)C(=O)O
B6: SEQ ID NO 89 (peptide)
peptide: H[Aib]EGS[αMeF]TSDVK([γGlu-Palmitoyl])S[αMeF]LEGEAA[αMeK]E[αMeF]IA[αMeF]VV[αMeK]GG-NH2
modifications: N-terminus assumed
SMILES: CCCCCCCCCCCCCCCC(=O)N[C@@H](CCC(=O)NCCCC[C@H](NC(=O)[C@@H](NC(=O)[C@H](CC(=O)O)NC(=O)[C@H](CO)NC(=O)[C@@H](NC(=O)[C@](C)(Cc1ccccc1)NC(=O)[C@H](CO)NC(=O)CNC(=O)[C@H](CCC(=O)O)NC(=O)C(C)(C)NC(=O)[C@@H](N)Cc1c[nH]cn1)[C@@H](C)O)C(C)C)C(=O)N[C@@H](CO)C(=O)N[C@@](C)(Cc1ccccc1)C(=O)N[C@@H](CC(C)C)C(=O)N[C@@H](CCC(=O)O)C(=O)NCC(=O)N[C@@H](CCC(=O)O)C(=O)N[C@@H](C)C(=O)N[C@@H](C)C(=O)N[C@@](C)(CCCCN)C(=O)N[C@@H](CCC(=O)O)C(=O)N[C@@](C)(Cc1ccccc1)C(=O)N[C@H](C(=O)N[C@@H](C)C(=O)N[C@@](C)(Cc1ccccc1)C(=O)N[C@H](C(=O)N[C@H](C(=O)N[C@@](C)(CCCCN)C(=O)NCC(=O)NCC(N)=O)C(C)C)C(C)C)[C@@H](C)CC)C(=O)O
B7: SEQ ID NO 92 (peptide)
peptide: H[Aib]EGS[αMeF]TK([γGlu-Palmitoyl])DV[αMeS]S[αMeF]LEGEAA[αMeK]E[αMeF]IA[αMeF]VV[αMeK]GG-NH2
modifications: N-terminus assumed
SMILES: CCCCCCCCCCCCCCCC(=O)N[C@@H](CCC(=O)NCCCC[C@H](NC(=O)[C@@H](NC(=O)[C@](C)(Cc1ccccc1)NC(=O)[C@H](CO)NC(=O)CNC(=O)[C@H](CCC(=O)O)NC(=O)C(C)(C)NC(=O)[C@@H](N)Cc1c[nH]cn1)[C@@H](C)O)C(=O)N[C@@H](CC(=O)O)C(=O)N[C@H](C(=O)N[C@@](C)(CO)C(=O)N[C@@H](CO)C(=O)N[C@@](C)(Cc1ccccc1)C(=O)N[C@@H](CC(C)C)C(=O)N[C@@H](CCC(=O)O)C(=O)NCC(=O)N[C@@H](CCC(=O)O)C(=O)N[C@@H](C)C(=O)N[C@@H](C)C(=O)N[C@@](C)(CCCCN)C(=O)N[C@@H](CCC(=O)O)C(=O)N[C@@](C)(Cc1ccccc1)C(=O)N[C@H](C(=O)N[C@@H](C)C(=O)N[C@@](C)(Cc1ccccc1)C(=O)N[C@H](C(=O)N[C@H](C(=O)N[C@@](C)(CCCCN)C(=O)NCC(=O)NCC(N)=O)C(C)C)C(C)C)[C@@H](C)CC)C(C)C)C(=O)O

The target in one experiment is T1, glucose-dependent insulinotropic …. In words: cell-based or functional assay.
Regarding B1, the “cAMP Primary assay EC50 GIP-R” value turned out to be 28 nM and the “cAMP Primary assay EC50 GIP-R (2nd)” value amounted to 28 nM.
Turning to B2, the “cAMP Primary assay EC50 GIP-R” value worked out at 28 nM and the “cAMP Primary assay EC50 GIP-R (2nd)” value came out at 28 nM.
B3: the “cAMP Primary assay EC50 GIP-R” value is 28 nM and the “cAMP Primary assay EC50 GIP-R (2nd)” value turned out to be 28 nM.
For B4, the “cAMP Primary assay EC50 GIP-R” value was 28 nM and the “cAMP Primary assay EC50 GIP-R (2nd)” value worked out at 28 nM.
As to B5, the “cAMP Primary assay EC50 GIP-R” value was found to be 28 nM and the “cAMP Primary assay EC50 GIP-R (2nd)” value stood at 28 nM.
In the case of B6, the “cAMP Primary assay EC50 GIP-R” value was 28 nM and the “cAMP Primary assay EC50 GIP-R (2nd)” value stood at 28 nM.
As for B7, the “cAMP Primary assay EC50 GIP-R” value was determined as 28 nM and the “cAMP Primary assay EC50 GIP-R (2nd)” value stood at 28 nM.

The target of another experiment is GLP-1 receptor (GLP-1R) (human, UniProt P43220 24-463). Description: cell-based or functional assay.
Turning to B1, the “cAMP Mean pM GLP-1R” value amounted to 5 pM, the “cAMP Primary assay EC50 GLP-1R n1” value came out at 0.0043 nM and the “cAMP Primary assay EC50 GLP-1R n2” value came to 0.0057 nM.
Consider B2, for which the “cAMP Mean pM GLP-1R” value was found to be 1.5 pM, the “cAMP Primary assay EC50 GLP-1R n1” value amounted to 0.0013 nM and the “cAMP Primary assay EC50 GLP-1R n2” value is 0.0017 nM.
For the molecule B3, the “cAMP Mean pM GLP-1R” value came out at 0.7 pM, the “cAMP Primary assay EC50 GLP-1R n1” value was determined as 0.00068 nM and the “cAMP Primary assay EC50 GLP-1R n2” value was found to be 0.00079 nM.
The like results for B4 were, in that order, 24 pM, 0.021 nM and 0.027 nM.
The like results for B5 were, in that order, 1.6 pM, 0.0016 nM and 0.0016 nM.
For B6, the “cAMP Mean pM GLP-1R” value stood at 548 pM, the “cAMP Primary assay EC50 GLP-1R n1” value turned out to be 0.45 nM and the “cAMP Primary assay EC50 GLP-1R n2” value was determined as 0.65 nM.
For the molecule B7, the “cAMP Mean pM GLP-1R” value came out at 423 pM, the “cAMP Primary assay EC50 GLP-1R n1” value is 0.45 nM and the “cAMP Primary assay EC50 GLP-1R n2” value stood at 0.39 nM.

The target in another experiment is glucagon receptor (GCGR) (human, UniProt P47871 26-477). Description: cell-based or functional assay.
Sequence of glucagon receptor (GCGR) (P47871 26-477): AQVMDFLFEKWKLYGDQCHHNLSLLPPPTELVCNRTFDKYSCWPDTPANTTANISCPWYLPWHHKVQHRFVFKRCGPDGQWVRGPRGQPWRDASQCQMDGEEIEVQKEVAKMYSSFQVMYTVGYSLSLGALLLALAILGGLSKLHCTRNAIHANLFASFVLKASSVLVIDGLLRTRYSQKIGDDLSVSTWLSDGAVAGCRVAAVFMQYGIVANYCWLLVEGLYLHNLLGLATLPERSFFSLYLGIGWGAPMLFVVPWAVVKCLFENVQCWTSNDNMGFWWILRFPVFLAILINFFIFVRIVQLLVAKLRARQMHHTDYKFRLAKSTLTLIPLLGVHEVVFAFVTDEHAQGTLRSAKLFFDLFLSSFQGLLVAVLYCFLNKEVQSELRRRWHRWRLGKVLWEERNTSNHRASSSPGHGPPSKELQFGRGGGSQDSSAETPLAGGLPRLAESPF
On to B1, for which the “cAMP Primary assay EC50 Gluc-R” value was determined as 28 nM and the “cAMP Primary assay EC50 Gluc-R (2nd)” value amounted to 28 nM.
On to B2, for which the “cAMP Primary assay EC50 Gluc-R” value came out at 28 nM and the “cAMP Primary assay EC50 Gluc-R (2nd)” value was found to be 28 nM.
On to B3, for which the “cAMP Primary assay EC50 Gluc-R” value amounted to 28 nM and the “cAMP Primary assay EC50 Gluc-R (2nd)” value came out at 28 nM.
On to B4, for which the “cAMP Primary assay EC50 Gluc-R” value was found to be 28 nM and the “cAMP Primary assay EC50 Gluc-R (2nd)” value was determined as 28 nM.
For B5, the “cAMP Primary assay EC50 Gluc-R” value is 28 nM and the “cAMP Primary assay EC50 Gluc-R (2nd)” value turned out to be 28 nM.
As for B6, the “cAMP Primary assay EC50 Gluc-R” value is 28 nM and the “cAMP Primary assay EC50 Gluc-R (2nd)” value is 28 nM.
Regarding B7, the “cAMP Primary assay EC50 Gluc-R” value worked out at 28 nM and the “cAMP Primary assay EC50 Gluc-R (2nd)” value was 28 nM.
